Biological target: t-SNARE complex (syntaxin HT and SNAP-25) (rat) (UniProt P32851)
Test: EPR spectroscopy

**Q.** Which Kd does the source give for “complexin I C105A R56C, spin-labeled at position 56 (from UniProt P63041 2-134) (natural protein)” here?
**A.** 50 µM

— paper PMC2493294
